Measured values reported in US6710030B1, “Contortrostain (CN) and methods for its use in preventing metastasis and other conditions” (University of Southern California, priority 1993, dated 2004).
“Also recorded” adds a separate entry of the source.

What was measured:
[1] = test system: chick chorioallantoic membrane; test: bFGF and VEGF induced angiogenesis in chick chorioallantoic membrane model; details: in vivo
Text: Significance: The function of αvβ5 has been indicated by many studies. […] Although αvβ5 participates in the initiation of cell adhesion to vitronectin, unlike αvβ3 which mediates cell migration constitutively, αvβ5 mediates migration only when activated by growth factors, such as insulin-like growth factor-1 (IGF-1), epidermal growth factor (EGF), and transforming growth factor-α (TGF-α).

T24-β3 neg. cells = test: Adhesion of T24-β3 neg. cells to immobilized vitronectin; assay type: cell-based, human; details: FIG. 19 C, D
Protocol: Experiment 1. Cell adhesion assay: Human bladder carcinoma T24 cells were purchased from ATCC, and grown in RPMI1640 medium containing 5% fetal bovine serum. T24-β3 neg. cells were isolated by 6 rounds of negative FACS selection with anti-αvβ3 monoclonal antibody (mAb) LM609. FACS analysis was then performed as follows. The cells were resuspended in 1% BSA/PBS at a density of 1×10^7/ml. Aliquots of 100 μl were incubated with anti-αvβ3 mAb 7E3 or anti-αvβ5 mAb P1F6 (final concentration 5 μg/ml) at room temperature for 30 minutes. The cells were washed twice and resuspended in 1% BSA/PBS. Goat anti-mouse IgG conjugated with FITC was added to the suspension at a final titer of 1:200. After 30 minutes incubation at room temperature in darkness, unbound FITC-conjugated IgG was washed off, and the fluorescent intensity of the cells was analyzed using flow cytometry (FACScan, Becton Dickinson, Bedford, Mass.). Tests were performed in duplicate and the experiment was repeated three times. The results clearly indicate that T24 cells express both integrins αvβ3 (major) and αvβ5 (minor), but T24-β3 neg. cells only express αvβ5 (FIG. 18)
Individual wells of 96-well plates were coated at 4° C. overnight with 100 μl of vitronectin (1 μg/well). […] Cell adhesion was quantified either by CellTiter 96™ Aqueous Proliferation Assay kit (Promega, Madison, Wis.). […]

αvβ3 293 cells = test: Phosphotyrosine immunoblot, 293 cells expressing αvβ3; assay type: cell-based, human; details: 10 min
Protocol: (§1) Cell culture, preparation and stimulation—T24 cells were maintained in RPMI 1640 medium containing 5% fetal bovine serum, and MDA-MB-435 and 293 cells were maintained in Dulbecco's modified Eagle's medium with 10% serum at 37° C. in 5% CO2. Cells were washed with phosphate-buffered saline (PBS) and starved in the appropriate serum-free medium for 6 h at 37° C. Cells were detached by brief treatment with 0.05% trypsin/0.02% EDTA in PBS and collected by centrifugation, resuspended in soybean trypsin inhibitor (1 mg/ml in serum-free medium), and washed in 2% bovine serum albumin/serum-free medium. Cells were maintained in suspension for 1 h in 2% bovine serum albumin/serum-free medium at 37° C. with end-over-end agitation. Quiescent cells (3×10^6/ml) were treated with disintegrins or other reagents while in suspension, or were allowed to adhere to Matrigel (Becton Dickinson, Bedford, Mass.) diluted 1:100 with serum-free medium during treatment. […]
(§2) Contortrostatin- induced signaling events are mediated by the αvβ3 integrin—The integrinbinding specificities of echistatin and flavoridin have been determined previously (Niewiarowski et al., supra; and Pfaff, M., McLane, M. A., Beviglia, L., Niewiarowski, S., and Timpl, R. (1994) Cell Adhesion and Communication 2, 491-501). […]

αvβ5 293 cells = test: Phosphotyrosine immunoblot, 293 cells expressing αvβ5; assay type: cell-based, human; details: 10 min
Protocol: as §1, §2

[2] = test system: KSY-1 Kaposi's sarcoma cells; test: Phosphotyrosine immunoblot, KSY-1 Kaposi's sarcoma cells; assay type: cell-based; details: data not shown

B1: contortrostatin (protein)
chain: DAPANPCCDAATCKLTTGSQCADGLCCDQCKFMKEGTVCRRARGDDLDDYCNGISAGCPRNPFHA
- angiogenesis induced by bFGF and VEGF [1]: inhibits angiogenesis
- adhesion of T24-β3 neg. cells to vitronectin, in words (T24-β3 neg. cells): completely inhibited adhesion; also recorded: inhibits adhesion of T24-β3 neg. completely
- tyrosine phosphorylation (αvβ3 293 cells): robust induction of tyrosine phosphorylation; also recorded: increased tyrosine phosphorylation
- tyrosine phosphorylation (αvβ5 293 cells): no response
- tyrosine phosphorylation of 120-140 kDa proteins [2]: also observed
